Test results reported in US20030045470A1.

Target: Gal4 DBD-COUP-TF fusion protein (yeast) (UniProt P04386)
Assay: cell-based or functional assay

Substance: PGC-1 (expressed from pCMV-PGC-1 in transfected cells) (from UniProt O70343 1-797)
- PGC-1 mediated activation of mutant PEPCK promoter-luciferase constructs (% of that achieved by HNF-4α): 20 to 30
